Experimental data taken from the supplement of paper PMC9170038.

System: MS2 coat protein
Assay: apparent KD of MS2 coat protein, switch OFF state (with FMN for OFF switches, without FMN for ON switches); designed switch direction (-1 OFF switch, 1 ON switch): -1; higher = weaker reporter binding
Details: FMN input: 0 or 200 uM; Eterna round: R93 (includes R88 designs)
How it was run: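 Designed RNA switches were transcribed on-chip from Illumina sequencing clusters. They were then titrated with SNAP-549-labelled MS2 coat protein (twofold steps, 0.7 or 1.5 nM to 3 µM; 0.8–1.5 h to 10–20 min per step) in 100 mM Tris-HCl pH 7.5, 80 mM KCl, 4 mM MgCl2, without or with constant ligand. Apparent KD is the per-design median of normalised cluster binding-curve fits.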

Row | Sequence | apparent KD of MS2 coat protein [nM]
1 | AAUAAGUCAGGAUAUACUAUGUCAGGAGAGAGACUGACUAUGUAGAAGGGACAUGAGGAUCACCCAUGUAAUAA [JR_Exclusion4_Sub5] | 36.1
2 | CUCUAGUAAGGAUAUGGAAGAAAAGAAAAGAAAGAAAAGAACCAGAAGGUACAUGAGGAUCACCCAUGUAAGAA [EteRNA is fun!] | 23.4
3 | AAGACUAGAGGAUAUACAUGAGGAUCACCCAUGUAACUGUCAGGAGACUGACGGAGAAGUAGAAGGCUAGUCAA [Mat - Exclusion 3 - JL mod - D84] | 19.4
4 | GGUUGGCGAGGAUAUACAUGAGGAUCACCCAUGUGAGAGAUAAAAGUGAGAAAGAAAAGUAGAAGGCGCUGACG [salish99-ex3-45] | 65
5 | AUAAAACAUGAGGAUCACCCAUGUGAGGAUAUAGGAAACAAACAAACAAACAAACAAACUAGAAGGCACAAUAA [Amethyst 10] | 16.7
6 | AAUAAACAUGAGGAUCACCCAUGUAAGGAUAUGCGAACAAUAAGAAGACAAUAAUAAAGCAGAAGGUACAAGAG [Ex1 sub 1] | 50
7 | AAUAAACAUGAGGAUCACCCAUGUCAGGAUAUGCACAAACAAACAAACAAACAAGCUAGCAGAAGGGACACUAC [Amethyst 87] | 31
8 | AGGGAGUGAGGAUAUGCGAAAUAAAAAGAAGGAAAAAAAGAGCAGAAGGCACAUGAGGAUCACCCAUGUGAGAA [milkweed 11] | 15.7
9 | GGAAAGUGAGGAUAUGCAUAACAAAUACAAAGAGAAACAAAGCAGAAGGCACAUGAGGAUCACCCAUGUAAACA [Exclusion 4 Float] | 22.7
10 | AAGAAACAUGAGGAUCACCCAUGUGAGGAUAUUGAAAAGAAAAGAAAAGAAAGAAGAACAAGAAGGCACAAAGG [Merenhor] | 37.8
11 | AUAAAUCGAGGAUAUACAUGAGGAUCACCCAUGUAAAUAAAUAAAUAAAACUCCACAAGUAGAAGGCGAAAUAA [JR_Exc003_Sub020] | 20.8
12 | AGCUAGUCAGGAUAUACGAACAUGUCAAAAGACGUGAAGGAACAUGAGGAUCACCCAUGUAGAAGGGACUAGCA [Diamond 19] | 16.5
13 | AUCUACCUAGGAUAUACAUGAGGAUCACCCAUGUACAGUUUCAACUAGGGAUACUCACGUAGAAGGAGGUAGAU [JR_Exc003_Sub1210] | 21.2
14 | ACCAGUACAGGAUAUACAUGAGGAUCACCCAUGUGAGAAUUAAGUGGCGUACCACAAAGUAGAAGGGUACUGGA [Mat - Exclusion 3 - JL mod - D11] | 273
15 | AGUGAGUCAGGAUAUGCGUGAAGAAUAAAAGAAAUAACAACGCAGAAGGGACAUGAGGAUCACCCAUGUACACA [May 56] | 20.7
16 | AGAAAGGCAGGAUAUACAUGAGGAUCACCCAUGUUAAGAGUGACGGAAACGUCACGAAGUAGAAGGGCCAAGAA [The song I sing] | 17.3
17 | CCUGUGUGAGGAUAUGGUGUAAAAAAAAAAAAAUAGCUCCUCCAGAAGGCACAUGAGGAUCACCCAUGUCGUGG [Jolly's Folly 18 - Jieux - Exclusion 4] | 65.8
18 | GAAAAACAUGAGGAUCACCCAUGUCAGGAUAUGUAGAAAAAGAAAAAAAGAAAAGAAAACAGAAGGGACAAAAG [Mat - Same state - Mayanna Mod - D105] | 38.5
19 | AAGAGUACAGGAUAUAUAUGAAAAGAGUCGAAAGACUCAAAACAUGAGGAUCACCCAUGUAGAAGGGUACUCAA [Hyphema Seclusion Mod 62% 1] | 22.9
20 | AAAAAACAUGAGGAUCACCCAUGUAAGGAUAUGCUAGGAAAAAGAAAAAUAAAAACUAGCAGAAGGUAUAUGAA [JL wbt mod 12] | 27.4
21 | AAGAAAGCAGGAUAUACAUGAGGAUCACCCAUGUAAAAGAAAGAAGGGAAAGAGAAAAGUAGAAGGGCUAAGAA [Wehemibre Necho II] | 38.7
22 | UCCUUACAUGAGGAUCACCCAUGUUAGGAUAUCUCGCUUGCGCAAUCACAGCGCAAGCAGAGAAGGGACGCGGG [Ledige] | 29.1
23 | ACUUAGACAGGAUAUACGUGAGUGGAAAAAGUGUAUCCACUACAUGAGGAUCACCCAUGUAGAAGGGUCUAAGA [Ex2 Design 182: Random 7] | 19.7

Row | Sequence | apparent KD of MS2 coat protein [nM]
24 | AAAACUGGAGGAUAUACAUGAGGAUCACCCAUGUGUGGAUGAGCUGUGUCGGCGUCAAGUAGAAGGCCACAAAA [Gilly Gone Silly 36 - Jieux - Exclusion 3] | 43.1
25 | AAAACGGUAGGAUAUACGAUUUGGUACUAGACCGAGGAACCACAUGAGGAUCACCCAUGUAGAAGGACCAAAAA [EX2 Malc#19] | 14
26 | AGCUAGUGAGGAUAUACGAACAAGUAAAAGGACUGUAAGGGACAUGAGGAUCACCCAUGUAGAAGGCACUAGCA [Diamond 60] | 92.7
27 | AUAAUGAGAGGAUAUACAUGAGGAUCACCCAUGUAAUUAAAAAGGAGAGAAACAAUACGUAGAAGGCUCAUUUA [JR_Exc003+Sub601] | 50.6
28 | UCCUCACAUGAGGAUCACCCAUGUCAGGAUAUCUCACAGCGAAAGAAUAAAGGCUGCAAGAGAAGGGACACAAA [Raisa] | 44.2
29 | CACGUACAUGAGGAUCACCCAUGUUAGGAUAUGCCGAAAAAAAAAAAAAAAAAAAUCAGCAGAAGGAACGAAAC [Bilbo Confounded 19 - Jieux - Exclusion 1] | 36
30 | AAAAAACAUGAGGAUCACCCAUGUAAGGAUAUGUAAAAUAAAAGAAAAAUAAAGAAAAGCAGAAGGUACAUGUA [JL wbt mod 16] | 44.5
31 | AAAAAGGCAGGAUAUACAAAAAAGAGAAGAGAGGAGGAGGGACAUGAGGAUCACCCAUGUAGAAGGGCCAAAAA [Karl Gunnar Myrdal] | 32.5
32 | AUAAAGACAGGAUAUACAUGAGGAUCACCCAUGUAAAAAAAAAAAAGUUCCUCAAAAAGUAGAAGGGUCAAUAA [JR_Exc003_Sub014] | 119
33 | CAAAGGUGAGGAUAUACAGGAAUAUGACGAAAGUCAUAAAAACAUGAGGAUCACCCAUGUAGAAGGCACCACAA [E2 64% 3] | 57.3
34 | AACAGUACAGGAUAUACAUGAGGAUCACCCAUGUGAGAGAAAUAAAACAAAAAUAAAAGUAGAAGGGUACUGGA [Moding Maslow revisited (73) 22] | 43.3
35 | UAAAGACAUGAGGAUCACCCAUGUGAGGAUAUCGGAGACAACAGAACAUCAAGUACAAUGAGAAGGCACAGAAA [JR_Exc001_Sub018] | 47.1
36 | AAAAAGUUAGGAUAUACAUGAGGAUCACCCAUGUACAUAUAUGGAGAAUAUAGCAGUAGUAGAAGGGACAAAAA [EX2 Malc#13] | 34.8
37 | AGGAUGUCAGGAUAUGCGUAAAGAAUAAAACAAAUAACAACGCAGAAGGGACAUGAGGAUCACCCAUGUUAAGA [May 45] | 86
38 | CCCAUGUCAGGAUAUCAGUAGUAAAAAAAAAAAAUUACUACUGAGAAGGGACAUGAGGAUCACCCAUGUCAAAA [EX4 315: Super Stable 15] | 21
39 | AAAAACCUAGGAUAUACAUGAGGAUCACCCAUGUAAAGAAAAAAAAAGGGAAAAAAAAGUAGAAGGAGGAAGAA [JR_Exc003_Sub1201] | 18.6
40 | AAAAAAAAAGGAUAUAAAACAGAGGAUAUACAUAAAUAAAAACAUGAGGAUCACCCAUGUAGAAGGCUGAAAAA [Meechl Ex2 R2 m0] | 22.2
41 | AAAAAGUGAGGAUAUGUCAAAAGUCACAAAAGUGACAAAAGACAGAAGGCACAUGAGGAUCACCCAUGUGAAAG [Mat - Exaclusion 4 - Eli mod - D53] | 37.6
42 | AAGAAGGAAGGAUAUACAUGAGGAUCACCCAUGUAAAAGAAAGAAAAGGGAAAGAAAAGUAGAAGGUCCAAGAA [Djeserkheperure-setpenre Horemheb] | 41.6
43 | AACUGACAUGAGGAUCACCCAUGUCAGGAUAUGACAUCGAGAAAAAAAAAAAUCGUUGUCAGAAGGGACAUGAA [Design 78: Sub-opt T] | 13.6
44 | AAGAACGCAGGAUAUACAUGAGGAUCACCCAUGUAAAAGAAAGAAAAGGGAAAGAAAAGUAGAAGGGCGAAGAA [Aakheperkare Thutmose I] | 33.1
45 | AAAAAGCGAGGAUAUACAUGAGGAUCACCCAUGUCAAAAGGUAAGACCGCAGAAAAAAGUAGAAGGCGCAAAAA [Exclusion3-01] | 172
